Measurements as given in IntAct's records for PubMed 23542155.

B1: Ligand-dependent nuclear receptor-interacting factor 1 (Homo sapiens), Q5T3J3 (parent)
chain: MSNNLRRVFLKPAEENSGNASRCVSGCMYQVVQTIGSDGKNLLQLLPIPKSSGNLIPLVQSSVMSDALKGNTGKPVQVTFQTQISSSSTSASVQLPIFQPASSSNYFLTRTVDTSEKGRVTSVGTGNFSSSVSKVQSHGVKIDGLTMQTFAVPPSTQKDSSFIVVNTQSLPVTVKSPVLPSGHHLQIPAHAEVKSVPASSLPPSVQQKILATATTSTSGMVEASQMPTVIYVSPVNTVKNVVTKNFQNIYPKPVTEIAKPVILNTTQIPKNVATETQLKGGQHSQAAPVKWIFQDNLQPFTPSLVPVKSSNNVASKILKTFVDRKNLGDNTINMPPLSTIDPSGTRSKNMPIKDNALVMFNGKVYLLAKKGTDVLPSQIDQQNSVSPDTPVRKDTLQTVSSSPVTEISREVVNIVLAKSKSSQMETKSLSNTQLASMANLRAEKNKVEKPSPSTTNPHMNQSSNYLKQSKTLFTNPIFPVGFSTGHNAPRKVTAVIYARKGSVLQSIEKISSSVDATTVTSQQCVFRDQEPKIHNEMASTSDKGAQGRNDKKDSQGRSNKALHLKSDAEFKKIFGLTKDLRVCLTRIPDHLTSGEGFDSFSSLVKSGTYKETEFMVKEGERKQQNFDKKRKAKTNKKMDHIKKRKTENAYNAIINGEANVTGSQLLSSILPTSDVSQHNILTSHSKTRQEKRTEMEYYTHEKQEKGTLNSNAAYEQSHFFNKNYTEDIFPVTPPELEETIRDEKIRRLKQVLREKEAALEEMRKKMHQK

Variants of: B1
Conditions: with cbx5_human CBX5, P45973
Sequence of cbx5_human CBX5, P45973 (P45973 whole entry): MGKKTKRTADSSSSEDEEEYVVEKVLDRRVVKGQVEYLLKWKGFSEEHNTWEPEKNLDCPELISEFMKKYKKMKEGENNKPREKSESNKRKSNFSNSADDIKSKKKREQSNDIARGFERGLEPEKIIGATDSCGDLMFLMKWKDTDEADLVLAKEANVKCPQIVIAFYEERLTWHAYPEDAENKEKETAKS

Variant | effect of a mutation on the interaction
V582D;L584E | disrupting interaction strength
